Earlier results in publication PMC6679586.

Target: Activin A mature domain mature domain (Homo sapiens) (UniProt P08476)

Activin A prodomain prodomain (from UniProt P08476)
Kd: 5 nM
